Reference: paper PMC4415690

Molecular target: TesS thioesterase (SP1408) of Streptococcus pneumoniae, C-terminal FLAG tag (Streptococcus pneumoniae)
Experiment: SEC

## TesS thioesterase (SP1408) of Streptococcus pneumoniae, C-terminal FLAG tag (enzyme)
  stoichiometry N: 2
